From doi:10.1101/498428

Experiments:
Assay in all cases: native gel or EMSA
[1] = target: His-PRDM9^Cst ZnF1-11 (Mus musculus castaneus (CAST/EiJ strain))
[2] = target: His-PRDM9^Cst ZnF2-8 (Mus musculus castaneus (CAST/EiJ strain))
[3] = target: His-Halo-PRDM9^Cst ZnF1-11 (Mus musculus castaneus (CAST/EiJ strain))
[4] = target: His-PRDM9^Cst ZnF2-6 (Mus musculus castaneus (CAST/EiJ strain))
[5] = target: His-eYFP-PRDM9^Cst ZnF (Mus musculus castaneus (CAST/EiJ strain))
[6] = target: His-MBP-eYFP-PRDM9^Cst ZnF (Mus musculus castaneus (CAST/EiJ strain))
[7] = target: His-eYFP-PRDM9^Cst ZnF1-11 (Mus musculus castaneus (CAST/EiJ strain))
[8] = target: His-eYFP-PRDM9^Cst ZnF2-11 (Mus musculus castaneus (CAST/EiJ strain))
[9] = target: His-eYFP-PRDM9^Cst (full-length PRDM9^Cst) (Mus musculus castaneus (CAST/EiJ strain))
[10] = target: His-MBP-eYFP-PRDM9^Dom2 ZnF (Mus musculus domesticus (C57BL/6J strain))
[11] = target: His-PRDM9^Cst ZnF (Mus musculus castaneus (CAST/EiJ strain))

His-PRDM9^Cst ZnF1-11 (domain or fragment)
stoichiometry N [1]: 3

His-PRDM9^Cst ZnF2-8 (domain or fragment)
stoichiometry N [2]: 3

His-Halo-PRDM9^Cst ZnF1-11 (domain or fragment)
stoichiometry N [3]: 3

His-PRDM9^Cst ZnF2-6 (domain or fragment)
stoichiometry N [4]: 3

His-eYFP-PRDM9^Cst ZnF (domain or fragment)
stoichiometry N [5]: 3

His-MBP-eYFP-PRDM9^Cst ZnF (domain or fragment)
stoichiometry N [6]: 3

His-eYFP-PRDM9^Cst ZnF1-11 (domain or fragment)
stoichiometry N [7]: 3

His-eYFP-PRDM9^Cst ZnF2-11 (domain or fragment)
stoichiometry N [8]: 3

His-eYFP-PRDM9^Cst (full-length PRDM9^Cst) (natural protein)
stoichiometry N [9]: 3

His-MBP-eYFP-PRDM9^Dom2 ZnF (domain or fragment)
stoichiometry N [10]: 3

His-PRDM9^Cst ZnF (domain or fragment)
stoichiometry N [11]: 3
